Measurements published in patent US20060128606A1, “Fibrils” (priority 1998, published 2006).
Marks after values point to notes of the source that are not given here. Ends that are not written are not given here.

B1: muscle acylphosphatase: human muscle acylphosphatase protein, forms amyloid fibrils in 25% v/v trifluoroethanol (protein, UniProt P14621 2-99, looked up)
Acylphosphatase-2: STAQSLKSVDYEVFGRVQGVCFRMYTEDEARKIGVVGWVKNTSKGTVTGQVQGPEDKVNSMKSWLSKVGSPSSRIDRTNFSNEKTISKLEYSNFSIRY

Tests used:
Format in all cases: physicochemical
[1] = Hydrodynamic radii by NMR diffusion measurements (pulse field gradient); conditions: 10 mg/mL peptide in 50% acetonitrile
Procedure: All NMR spectra were acquired at ^1H frequencies of 500 or 600 MHz on homebuilt NMR spectrometers at the Oxford Centre for Molecular Sciences. One dimensional (1D) spectra typically contain 8K complex data points. Two dimensional (2D) experiments were acquired with 2K complex data points in the t2 dimension, and in phase-sensitive mode using time proportional phase incrementation (TPPI) for quadrature detection in t1. Diffusion constants were determined using pulse field gradient experiments with 8K complex points. Spectral widths of 8,000 Hz were used for all experiments. […] The water signal was suppressed either by using presaturation during the 1.2 s relaxation delay or by using a gradient double echo. […] Data were processed using Felix 2.3 (BIOSYM) on Sun workstations. Typically, the data were zero filled once, and processed with a double exponential window function for the 1D, and a sinebell squared function, shifted over 90° for each dimension of the 2D spectra. All spectra were referenced to an internal standard of dioxan at 3,743 ppm.

[2] = Congo red binding assay of amyloid fibril formation (CspB peptides); set-up: key: (++) strongly positive; (+) weakly positive; (0) no positive evidence
Procedure: For the congo red binding assay of fibril formation, absorption spectra of a 10 μM solution of the dye in the assay buffer (5 mM phosphate pH 7.41 […]) before and after addition of the peptide solution were recorded on a Perkin Elmer (Foster City, Calif.) Lambda 16 spectrometer in the range of 400 to 700 nm.
Analysis by three independent techniques of samples produced by dilution of concentrated solutions of all three peptides ([…]) from 50% to either 10 or 90% acetonitrile was carried out to screen for the presence of amyloid fibrils.
(§1) Aggregated states of all three peptides produced in 10 and 90% acetonitrile were analysed using these techniques.

[3] = Transmission electron microscopy screen for amyloid fibrils (CspB peptides); set-up: key: (++) strongly positive; (+) weakly positive; (0) no positive evidence; conditions: 2.0 mg/mL peptide
Procedure: Fibril formation and morphology were examined by transmission electron microscopy (EM). Peptide samples were dried onto formvar-and carbon-coated grids and negatively stained with 1% phosphotungstic acid (PTA). Grids were examined in a JEOL JEM-1010 electron microscope at 80 kV excitation voltage.
(§2) Analysis by three independent techniques of samples produced by dilution of concentrated solutions of all three peptides (10.0 mg/mL diluted to 2.0 mg/mL final concentration) from 50% to either 10 or 90% acetonitrile was carried out to screen for the presence of amyloid fibrils.
as §1

[4] = Light microscopy of congo red stained precipitates, green birefringence (CspB peptides); set-up: key: (++) strongly positive; (+) weakly positive; (0) no positive evidence; conditions: 2.0 mg/mL peptide
Procedure: Yellow green birefringence indicates the presence of cross […].
as §2, §1

[5] = Solubility in aqueous buffer or acetonitrile cosolvent; conditions: aqueous buffer; aqueous buffers, pH 6.0 to 7.2, no cosolvent; read-out: Solubility under similar conditions (aqueous buffers)
Procedure: In contrast, none of the three peptides are soluble under similar conditions to any significant extent; CspB-2, for example, dissolves only to ˜0.2 mg/mL. To solubilize the peptides, acetonitrile was used as a cosolvent at pH 4.0 (formic acid, unbuffered). […] A standardized set of combinations of peptide concentration and solvent composition was used, involving peptide concentrations of 0.4, 2 and 10 mg/mL, and acetonitrile concentrations of 10, 50 and 90%.

[6] = β-sheet content from CD ellipticity at 215 nm; conditions: 0.4 mg/mL
Procedure: CD spectra were recorded on a Jasco J720 spectropolarimeter using quartz cuvettes of 1 mm pathlength, at 1 nm intervals from 195 to 250 nm. Routinely, CD samples were examined 30 min after dilution from the peptide stock solution containing 50% acetonitrile.
Calculation of the β-sheet content was carried out using the ellipticity at 215 nm normalized to a per residue basis (units: deg cm^2/dmol).

[7] = 1D NMR estimate of percentage of peptide visible in solution; conditions: 10 mg/mL in 50% acetonitrile
Procedure: A series of 1D spectra was used to estimate the percentage of peptide visible by solution NMR. These 1D spectra were all acquired with a gain of 7,000 and 256 scans on the same 500 MHz NMR spectrometer, in consecutive experiments. The concentration of a tryptophan solution was calculated from its absorbance at 280 nm. The integration of the indole resonances in these ID spectra from the tryptophan and peptide solutions was used to estimate the concentration of the peptide solutions.
Any small oligomers (whose signals merge with the monomer signal if conformational interconversion takes place on a time scale shorter than that resolvable by this method, i.e. less than ˜100 ms) can only exist as minor populations. […] The remainder must therefore be in large soluble aggregates whose overall tumbling times are too large to give resolvable NMR […].

[8] = Thioflavin T assay of muscle acylphosphatase aggregate; conditions: aggregate after two weeks in 25% v/v TFE, pH 5.5, 25° C.
Procedure: (§3) Muscle acylphosphatase was purified as previously reported (A. Modesti et al. (1995) Protein Express Purif. 6, 799) and incubated at a concentration of 0.375 mg/ml (34 μM) in 25% v/v trifluoroethanol (TFE), acetate buffer, pH 5.5 at 25° C. under constant stirring. Aliquots were withdrawn at regular time intervals for electron microscopy and spectroscopic analysis. Circular dichroism spectra were acquired directly by means of a Jasco J-720 spectropolarimeter and cuvettes of 1 mm path length. Electron micrographs were acquired by a JEM 1010 transmission electron microscope at 80 kV excitation voltage. A 3 μL sample of protein solution was placed and dried for five minutes on a Formvar and carbon-coated grid. The sample was then stained with 3 μL 1% phosphotungstic acid solution and observed at magnifications of 25-100k.
(§4) Thioflavin T and Congo Red assays were performed according to Le Vine III (H. Le Vine III (1995) Amyloid: Int. J. Exp. Clin. Invest. 2,1.) and Klunk (W. E. Klunk et al. (1989) J. Histochem. Cytochem. 37, 1293), respectively. For Congo Red birefringence experiments aliquots of protein were air dried onto glass slides. The resulting films were stained with a saturated solution of Congo red and sodium chloride, corrected to pH 10.0 with 1% sodium hydroxide. The stained slides were examined by an optical microscope between crossed polarizers.

[9] = Congo Red absorption and birefringence of muscle acylphosphatase aggregate
Procedure: as §3, §4

[10] = 10% acetonitrile, first experiment, 1.6 mg/mL peptide
[11] = 10% acetonitrile, second experiment, 2.0 mg/mL peptide
[12] = 90% acetonitrile, first experiment, 1.6 mg/mL peptide
[13] = 90% acetonitrile, second experiment, 2.0 mg/mL peptide
[14] = 10% acetonitrile, first experiment
[15] = 90% acetonitrile, first experiment
[16] = 90% acetonitrile, second experiment

Molecule	Hydrodynamic Stokes radius [1]	Amyloid fibril formation, Congo Red [2, 10]	Amyloid fibril formation, Congo Red [2, 11]	Amyloid fibril formation, Congo Red [2, 12]	Amyloid fibril formation, Congo Red [2, 13]	Amyloid fibril formation, EM ([3]; 10% acetonitrile)	Amyloid fibril formation, EM ([3]; 90% acetonitrile)	Amyloid fibril formation, LM green birefringence [4, 14]	Amyloid fibril formation, LM green birefringence [4, 15]	Amyloid fibril formation, LM green birefringence [4, 16]	solubility [5] [µg/mL]	β-sheet content (CD) ([6]; 2.5% acetonitrile) [%]	β-sheet content (CD) ([6]; 15 to 70% acetonitrile) [%]	β-sheet content (CD) ([6]; 97.5% acetonitrile) [%]	Amyloid fibril formation, LM green birefringence ([4]; 10% acetonitrile, second experiment)	β structure content (CD) ([6]; 90% acetonitrile) [%]	Total peptide concentration detectable in the NMR spectra [7] [%]	Increase of the 482 nm fluorescence (excitation 440 nm) of Thioflavin T [8]	Congo Red birefringence under cross-polarised light ([9]; fibrils after two weeks of incubation)	Congo Red difference spectrum, maximum intensity ([9]; spectrum of aggregate plus dye minus aggregate alone and dye alone) [nm]
MLEGKVKWFNSEKGFGFIEVEGQDDVFVHFSAIQG [CspB-2]	1.68 nm	++	0	0	++	++	++	+	++	0	~200	100	~20	71.5						
CspB-1: peptide, residues 1-22 of B. subtilis cold shock protein CspB, corresponding to the first two β-strands (MLEGKVKWFNSEKGFGFIEVEG; UniProt P32081 1-22, looked up, fragment)	1.60^a nm	++, ++	++, ++	++	0	++	0	++, ++	++, ++	++, ++					++, ++	~70	~20			
B1																		three fold increase	characteristic green birefringence	540
